Paper PMC9352680, “A comprehensive thermodynamic model for RNA binding by the Saccharomyces cerevisiae Pumilio protein PUF4”

T1: PUF4 RNA-binding domain (Saccharomyces cerevisiae, UniProt P25339 537-888)
T1 sequence: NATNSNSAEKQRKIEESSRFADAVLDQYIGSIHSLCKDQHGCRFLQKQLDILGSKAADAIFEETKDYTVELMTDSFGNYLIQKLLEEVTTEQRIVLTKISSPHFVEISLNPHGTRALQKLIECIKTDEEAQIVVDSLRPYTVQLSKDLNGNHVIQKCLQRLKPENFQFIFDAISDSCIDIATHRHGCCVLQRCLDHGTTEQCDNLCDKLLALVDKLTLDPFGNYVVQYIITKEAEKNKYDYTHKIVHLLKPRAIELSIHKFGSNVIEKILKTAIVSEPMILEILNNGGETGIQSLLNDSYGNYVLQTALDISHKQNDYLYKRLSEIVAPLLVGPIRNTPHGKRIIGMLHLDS

B1: Ic_S2_P5E.1_K5.1_C5.1_H5.1_A5.1_[T5C]_[T6G]_[A7T]_F5.1_[T8C]_[T9G]_[A10T]_T5.1 (ssRNA)
RNA: UUUGAUUAAUAUGAUAUCGUUCUUUCUUGUACGUCGUUUCUUUCUCGAUAUCAUAUUAAUCUUU
B2: Ic_S2_P5E.1_K5.1_C5.1_H5.1_A5.1_[A7G]_F5.1_[T8C]_[T9C]_T5.1 (ssRNA)
RNA: UUUGAUUAAUAUGAUAUCGUUCUUUCUUGUAUUGCCAUUCUUUCUCGAUAUCAUAUUAAUCUUU
B3: Ic_S2_P5E.1_K5.1_C5.1_H5.1_A5.1_[T5C]_[T6C]_[A7T]_F5.1_[T8C]_[T9G]_[A10C]_T5.1 (ssRNA)
RNA: UUUGAUUAAUAUGAUAUCGUUCUUUCUUGUACCUCGCUUCUUUCUCGAUAUCAUAUUAAUCUUU
B4: Ic_S2_P5E.1_K5.1_C5.1_H5.1_A5.1_[T5A]_[T6C]_[A7C]_F5.1_[T9A]_[A10T]_T5.1 (ssRNA)
RNA: UUUGAUUAAUAUGAUAUCGUUCUUUCUUGUAACCUAUUUCUUUCUCGAUAUCAUAUUAAUCUUU
B5: Ic_S2_P5E.1_K5.1_C5.1_H5.1_A5.1_[T5A]_[T6A]_[A7C]_F5.1_[T9G]_[A10G]_T5.1 (ssRNA)
RNA: UUUGAUUAAUAUGAUAUCGUUCUUUCUUGUAAACUGGUUCUUUCUCGAUAUCAUAUUAAUCUUU
B6: Ic_S2_P5E.1_K5.1_C5.1_H5.1_A5.1_[T5G]_[A7C]_F5.1_[T8G]_[A10G]_T5.1 (ssRNA)
RNA: UUUGAUUAAUAUGAUAUCGUUCUUUCUUGUAGUCGUGUUCUUUCUCGAUAUCAUAUUAAUCUUU
B7: Ic_S2_P5E.1_K5.1_C5.1_H5.1_A5.1_[T5C]_[T6A]_[A7C]_F5.1_[T8A]_[T9A]_T5.1 (ssRNA)
RNA: UUUGAUUAAUAUGAUAUCGUUCUUUCUUGUACACAAAUUCUUUCUCGAUAUCAUAUUAAUCUUU
B8: Ic_S2_P5E.1_K5.1_C5.1_H5.1_A5.1_[T5C]_F5.1_[T9A]_[A10T]_T5.1 (ssRNA)
RNA: UUUGAUUAAUAUGAUAUCGUUCUUUCUUGUACUAUAUUUCUUUCUCGAUAUCAUAUUAAUCUUU
B9: Ic_S2_P5E.1_K5.1_C5.1_H5.1_A5.1_[A7T]_F5.1_[T8C]_[T9A]_T5.1 (ssRNA)
RNA: UUUGAUUAAUAUGAUAUCGUUCUUUCUUGUAUUUCAAUUCUUUCUCGAUAUCAUAUUAAUCUUU
B10: Ic_S2_P5E.1_K5.1_C5.1_H5.1_A5.1_[T5G]_[T6C]_F5.1_[T8C]_[T9C]_[A10G]_T5.1 (ssRNA)
RNA: UUUGAUUAAUAUGAUAUCGUUCUUUCUUGUAGCACCGUUCUUUCUCGAUAUCAUAUUAAUCUUU
B11: Ic_S2_P5E.1_K5.1_C5.1_H5.1_A5.1_[T5C]_F5.1_[T8A]_[T9A]_[A10T]_T5.1 (ssRNA)
RNA: UUUGAUUAAUAUGAUAUCGUUCUUUCUUGUACUAAAUUUCUUUCUCGAUAUCAUAUUAAUCUUU
B12: Ic_S2_P5E.1_K5.1_C5.1_H5.1_A5.1_[T6C]_[A7T]_F5.1_[T8A]_[T9G]_[A10C]_T5.1 (ssRNA)
RNA: UUUGAUUAAUAUGAUAUCGUUCUUUCUUGUAUCUAGCUUCUUUCUCGAUAUCAUAUUAAUCUUU
B13: Ic_S2_P5E.1_K5.1_C5.1_H5.1_A5.1_[T5G]_[A7C]_F5.1_[T8A]_[T9C]_[A10T]_T5.1 (ssRNA)
RNA: UUUGAUUAAUAUGAUAUCGUUCUUUCUUGUAGUCACUUUCUUUCUCGAUAUCAUAUUAAUCUUU
B14: Ic_S2_P5E.1_K5.1_C5.1_H5.1_A5.1_[T6G]_[A7C]_F5.1_[T8C]_[T9G]_[A10G]_T5.1 (ssRNA)
RNA: UUUGAUUAAUAUGAUAUCGUUCUUUCUUGUAUGCCGGUUCUUUCUCGAUAUCAUAUUAAUCUUU
B15: Ic_S2_P5E.1_K5.1_C5.1_H5.1_A5.1_[T5A]_[T6C]_[A7T]_F5.1_[T8A]_[T9G]_[A10T]_T5.1 (ssRNA)
RNA: UUUGAUUAAUAUGAUAUCGUUCUUUCUUGUAACUAGUUUCUUUCUCGAUAUCAUAUUAAUCUUU
B16: Ic_S2_P5E.1_K5.1_C5.1_H5.1_A5.1_[T6C]_[A7G]_F5.1_[T8C]_[T9C]_[A10G]_T5.1 (ssRNA)
RNA: UUUGAUUAAUAUGAUAUCGUUCUUUCUUGUAUCGCCGUUCUUUCUCGAUAUCAUAUUAAUCUUU
B17: Ic_S2_P5E.1_K5.1_C5.1_H5.1_A5.1_[T6A]_[A7C]_F5.1_[T8G]_[T9G]_[A10T]_T5.1 (ssRNA)
RNA: UUUGAUUAAUAUGAUAUCGUUCUUUCUUGUAUACGGUUUCUUUCUCGAUAUCAUAUUAAUCUUU
B18: Ic_S2_P5E.1_K5.1_C5.1_H5.1_A5.1_[T5C]_[T6C]_F5.1_[T9A]_[A10C]_T5.1 (ssRNA)
RNA: UUUGAUUAAUAUGAUAUCGUUCUUUCUUGUACCAUACUUCUUUCUCGAUAUCAUAUUAAUCUUU
B19: Ic_S2_P5E.1_K5.1_C5.1_H5.1_A5.1_[T5A]_[T6C]_[A7G]_F5.1_[T9A]_[A10G]_T5.1 (ssRNA)
RNA: UUUGAUUAAUAUGAUAUCGUUCUUUCUUGUAACGUAGUUCUUUCUCGAUAUCAUAUUAAUCUUU
B20: Ic_S2_P5E.1_K5.1_C5.1_H5.1_A5.1_[T5A]_[T6C]_[A7C]_F5.1_[T9A]_[A10G]_T5.1 (ssRNA)
RNA: UUUGAUUAAUAUGAUAUCGUUCUUUCUUGUAACCUAGUUCUUUCUCGAUAUCAUAUUAAUCUUU
B21: Ic_S2_P5E.1_K5.1_C5.1_H5.1_A5.1_[T5C]_[T6G]_[A7T]_F5.1_[T8G]_[T9C]_[A10C]_T5.1 (ssRNA)
RNA: UUUGAUUAAUAUGAUAUCGUUCUUUCUUGUACGUGCCUUCUUUCUCGAUAUCAUAUUAAUCUUU
B22: Ic_S2_P5E.1_K5.1_C5.1_H5.1_A5.1_[T5A]_[A7T]_F5.1_[T9A]_[A10G]_T5.1 (ssRNA)
RNA: UUUGAUUAAUAUGAUAUCGUUCUUUCUUGUAAUUUAGUUCUUUCUCGAUAUCAUAUUAAUCUUU

Target: T1, PUF4 RNA-binding domain
Assay: Mg; RNA-MaP; 20 mM Na-HEPES pH 7.4, 30 mM KOAc, 0.75 mM MgCl2, 0.1% Tween-20, 5% glycerol, 0.1 mg/mL BSA, 2 mM DTT; 25 C; 0.0125-409.6 nM protein
Conditions: tags: N-His6-TEV cleaved; C-SNAP kept, Cy3B-labelled; label: tethered on chip by stalled RNA polymerase

| Binder | Kd [nM] |
| --- | --- |
| B1 | 207 |
| B2 | 497 |
| B3 | 101 |
| B4 | 4.74 |
| B5 | 26 |
| B6 | 492 |
| B7 | 10.8 |
| B8 | 0.408 |
| B9 | 389 |
| B10 | 1330 |
| B11 | 25.3 |
| B12 | 23.8 |
| B13 | 722 |
| B14 | 1340 |
| B15 | 737 |
| B16 | 1530 |
| B17 | 571 |
| B18 | 1.13 |
| B19 | 69.1 |
| B20 | 28.5 |
| B21 | 205 |
| B22 | 5.21 |
| UCUCUUUAUAUAUAAUCUCUU (ssRNA) [Ib_S1_P4E.1_K4.1_C4.1_H4.1_[G2A]_A4.1_F4.1_[T8A]_T4.1] | 532 |
